Measurements from US20090274696A1, “METHODS FOR TREATING INFLAMMATION” (WYETH, priority 2008, published 2009).

Columns and labels:
[1] = tested on: TSM of epithelium-denuded trachea; test: CCh-evoked force in trachea with mechanically removed epithelium EP(−); type: cell-based, mouse
Experimental: Histological examination of the structure of the airway and the status of the airway epithelial layer was performed in whole/sectional fresh trachea and as well as trachea cultured overnight with and without 100 nM FIZZ1. To understand the role of airway epithelium in regulating contractility of TSM, we measured the contractile response of tracheal rings after the epithelium was mechanically removed. Briefly, airway epithelial cells were removed by gently rubbing the intraluminal surface with polyethylene tubing (Becton Dickinson & Company, MD USA) connected to a Precision Glide needle (30G1/2) followed by perfusion with 1.0 ml air bubbles and then 1.0 ml K-H solution (re). All of the experimental tracheas were stained with H & E solution (CAT hematoxylin, Edgar Degas Eosin Working Solution, Biocare Medical, Concord, Calif.) and photographed under a light microscope at ×4.0 and ×20 magnification. […]
At the end of each force measurement experiment, tracheas were blotted on a gauze pad and weighted. Results were calculated as milligram of tension per milligram of TSM weight (mg/mg) and expressed as an individual percentage (%) of 10 μM CCh- or 200 μM papaverine-induced tension response in PBS-treated trachea. […]

[2] = tested on: TSM of fresh tracheal rings; test: Force response of fresh tracheas from intranasally challenged mice; type: in vivo, mouse; details: intranasal once a day×5 days, 100 nM rFIZZ1 or 0.1 ng/ml LPS; 24 hours after last treatment; PBS 100.00±14.63; N=5
Experimental: For some experiments, ex vivo TSM tensions of fresh tracheal rings and BAL cell counts were measured at 24 hours after the last treatment of mice receiving an intranasal dose of either PBS, 0.1 ng/m: LPS or 100 nM rFIZZ1 (once a day×5 days).
Trachea were supported longitudinally by a plexiglas rod with a stainless steel pin into the base of a double-jacketed, glass organ bath filled with 10 mL of Krebs-Henseleit (K-H) solution (37° C.) of the following composition: 118 mM NaCl; 4.7 mM KCl; 1.2 mM KH2PO4; 11.1 mM Dextrose; 1.2 mM MgSO4; 2.8 mM CaCl2; and 25 mM NaHCO3. The solution was maintained at a pH of 7.40-7.45 and continuously gassed with a mixture of 5% CO2 and […] for the duration of each experiment. […] Initial tensions of TSM were set at approximately 0.5 g and maintained for 1 hour. Agonists were given after a steady state of tension had been reached.
At the end of each force measurement experiment, tracheas were blotted on a gauze pad and weighted. Results were calculated as milligram of tension per milligram of TSM weight (mg/mg) and expressed as an individual percentage (%) of 10 μM CCh- or 200 μM papaverine-induced tension response in PBS-treated trachea. For the control group, CCh (papaverine)-mediated responses were normalized to the mean value of the maximal responses.

B1: rFIZZ1: recombinant FIZZ1 (Leinco Technologies), mouse FIZZ1 protein, resistin-like molecule-α (protein, listed as Mus musculus)
chain: MKTTTCSLLICISLLQLMVPVNTDETIEIIVENKVKELLANIPANYPSTVTKTLSCTSVKTMNRWASCPAGMTATGCACGFACGSWEIQSGDTCNCLCLLV
modifications: (1)..(101) Murine FIZZ1 polypeptide
B1 was tested, and the “EP(−) TSM sensitivity to CCh, LogEC50” value ([1]; EP(−)/FIZZ1 100 nM, Mean ± SE, N=8) was −0.91 ± 0.08 μM, the “maximal tensions (%), CCh stimulation, EP(−) trachea” value ([1]; denuded epithelium EP(−) with 100 nM FIZZ1, EP(+) 100±6.22) was 141.43±6.65% and the “Maximal tensions (%) of TSM, CCh-evoked, fresh trachea” value [2] was 147.78±18.57%.
